From PMC6760808 come the findings set out here.

Read-outs that look alike come from different tables or passages of the source.

Assay [1] has as its target Cer-NPHP4-YC (UniProt O75161). The assay can be described thus: split reporter (BiFC, NanoBiT); BiFC: Cer-NPHP-YC co-expressed with YN-myc-Nup in NIH 3T3 cells in serum-free medium; fixed 48 hours post-transfection; YFP fluorescence at the base of the primary cilium, cells counted across two independent experiments.
For assay [2], the target named is Cer-NPHP4-YC (UniProt O75161). The assay is described as above. This is another data set of the same source.

Sequence of UniProt O75161 (O75161 whole entry): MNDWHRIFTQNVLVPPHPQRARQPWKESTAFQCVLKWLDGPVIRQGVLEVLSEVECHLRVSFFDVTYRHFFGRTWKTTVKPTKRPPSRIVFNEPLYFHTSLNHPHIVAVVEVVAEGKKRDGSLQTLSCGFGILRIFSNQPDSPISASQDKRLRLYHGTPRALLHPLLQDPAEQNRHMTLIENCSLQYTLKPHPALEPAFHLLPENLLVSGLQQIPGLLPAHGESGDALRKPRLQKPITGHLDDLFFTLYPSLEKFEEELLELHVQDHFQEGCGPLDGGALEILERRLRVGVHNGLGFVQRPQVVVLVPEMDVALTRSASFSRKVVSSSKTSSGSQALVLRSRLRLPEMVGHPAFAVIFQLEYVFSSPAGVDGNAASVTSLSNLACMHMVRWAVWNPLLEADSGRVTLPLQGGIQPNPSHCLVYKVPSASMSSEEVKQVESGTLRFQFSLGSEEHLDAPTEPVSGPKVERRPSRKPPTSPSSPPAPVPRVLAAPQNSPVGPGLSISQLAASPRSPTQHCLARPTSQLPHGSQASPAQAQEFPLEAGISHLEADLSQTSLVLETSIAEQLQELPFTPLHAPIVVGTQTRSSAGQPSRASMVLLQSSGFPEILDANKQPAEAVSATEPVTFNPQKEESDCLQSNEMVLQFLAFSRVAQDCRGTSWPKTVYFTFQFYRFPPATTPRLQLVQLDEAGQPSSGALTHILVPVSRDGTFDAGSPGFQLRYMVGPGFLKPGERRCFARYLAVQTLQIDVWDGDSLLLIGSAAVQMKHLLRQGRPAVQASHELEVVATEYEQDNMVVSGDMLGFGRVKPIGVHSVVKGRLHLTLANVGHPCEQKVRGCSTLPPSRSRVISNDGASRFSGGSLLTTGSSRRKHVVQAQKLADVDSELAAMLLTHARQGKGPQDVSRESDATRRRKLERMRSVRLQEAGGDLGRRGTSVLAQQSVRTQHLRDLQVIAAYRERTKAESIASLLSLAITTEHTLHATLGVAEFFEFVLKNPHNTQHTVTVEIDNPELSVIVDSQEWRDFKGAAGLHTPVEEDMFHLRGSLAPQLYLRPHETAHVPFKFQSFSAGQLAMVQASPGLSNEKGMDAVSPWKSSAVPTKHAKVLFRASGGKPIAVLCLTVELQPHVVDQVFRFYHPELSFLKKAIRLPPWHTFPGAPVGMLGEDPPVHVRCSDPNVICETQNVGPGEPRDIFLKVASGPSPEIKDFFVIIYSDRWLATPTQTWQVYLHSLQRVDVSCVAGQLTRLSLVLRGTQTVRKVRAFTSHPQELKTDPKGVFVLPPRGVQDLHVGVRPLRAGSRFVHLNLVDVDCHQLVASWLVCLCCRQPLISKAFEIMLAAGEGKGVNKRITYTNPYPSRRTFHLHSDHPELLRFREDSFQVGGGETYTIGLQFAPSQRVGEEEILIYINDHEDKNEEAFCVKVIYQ

Turning to “YN-myc-Nup35 (from UniProt Q8NFH5 1-326) (natural protein)”, the cells with BiFC signal in assay [1] was 4 of 30 cells; in assay [2] it was 4 of 35 cells.
